Results on 2 substances are retold here after patent publication US20220040266A1.

The target in the test is growth hormone receptor (GHR) on pancreatic cancer cells (human) (UniProt P10912). In words: cell-based or functional assay.
Sequence of UniProt P10912 (P10912 19-638): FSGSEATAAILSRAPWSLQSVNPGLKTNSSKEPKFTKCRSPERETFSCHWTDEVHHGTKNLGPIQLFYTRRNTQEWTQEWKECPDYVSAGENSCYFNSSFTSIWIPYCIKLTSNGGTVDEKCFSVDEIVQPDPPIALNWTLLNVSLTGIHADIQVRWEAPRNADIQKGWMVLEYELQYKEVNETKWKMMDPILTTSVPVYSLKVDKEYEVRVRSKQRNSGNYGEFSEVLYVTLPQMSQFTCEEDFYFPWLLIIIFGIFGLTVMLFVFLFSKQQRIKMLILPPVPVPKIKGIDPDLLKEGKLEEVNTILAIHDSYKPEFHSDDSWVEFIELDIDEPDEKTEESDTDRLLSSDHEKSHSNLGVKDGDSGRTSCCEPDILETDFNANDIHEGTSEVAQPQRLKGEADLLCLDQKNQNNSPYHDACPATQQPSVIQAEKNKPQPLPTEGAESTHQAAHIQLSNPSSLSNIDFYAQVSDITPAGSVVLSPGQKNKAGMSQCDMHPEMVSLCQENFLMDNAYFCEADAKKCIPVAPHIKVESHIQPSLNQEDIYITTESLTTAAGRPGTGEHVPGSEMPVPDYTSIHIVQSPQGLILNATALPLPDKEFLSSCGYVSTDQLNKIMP

In the case of pegvisomant (SOMAVERT) (ligand), the drug efflux rate (DiOC2 dye), pancreatic cancer cells, 120 minutes was 2 fold and the percentage of drug retention after 120 minutes, pancreatic cancer cells is 83%.

As for “Compound G (hGHR antagonist hGH-G120K having T142 and H151 changed to cysteine and having both added cysteines conjugated with dPEG-A) (from UniProt P01241 27-217) (ligand)”, the drug efflux rate (DiOC2 dye), pancreatic cancer cells, 120 minutes is 2 fold and the percentage of drug retention after 120 minutes, pancreatic cancer cells turned out to be 83%.
